The text below walks through data of article PMC10996701.

For the data set, the target named is yeast RPA (yRPA, ScRPA) (Saccharomyces cerevisiae, UniProt P22336;P26754;P26755 1-621;1-273;1-122). Kind of data set: DEER.
Sequence of yeast RPA (yRPA, ScRPA) (P22336 whole entry, chain 1 of 3): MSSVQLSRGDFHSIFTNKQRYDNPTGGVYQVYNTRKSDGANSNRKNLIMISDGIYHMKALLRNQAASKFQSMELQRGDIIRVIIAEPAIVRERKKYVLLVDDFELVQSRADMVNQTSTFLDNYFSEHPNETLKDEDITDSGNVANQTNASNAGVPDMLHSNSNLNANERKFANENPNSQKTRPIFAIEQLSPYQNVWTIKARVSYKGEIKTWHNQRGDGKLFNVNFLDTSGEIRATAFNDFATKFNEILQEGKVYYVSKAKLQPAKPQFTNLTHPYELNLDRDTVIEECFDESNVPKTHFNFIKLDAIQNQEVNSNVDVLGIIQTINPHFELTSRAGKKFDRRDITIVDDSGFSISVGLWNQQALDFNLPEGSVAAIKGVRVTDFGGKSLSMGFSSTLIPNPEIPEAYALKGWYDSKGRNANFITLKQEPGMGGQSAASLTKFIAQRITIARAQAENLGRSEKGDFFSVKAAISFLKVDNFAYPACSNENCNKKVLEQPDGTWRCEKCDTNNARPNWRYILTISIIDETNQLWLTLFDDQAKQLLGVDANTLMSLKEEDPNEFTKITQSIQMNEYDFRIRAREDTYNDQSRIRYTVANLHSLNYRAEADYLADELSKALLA
Sequence of yeast RPA (yRPA, ScRPA) (P26754 whole entry, chain 2 of 3): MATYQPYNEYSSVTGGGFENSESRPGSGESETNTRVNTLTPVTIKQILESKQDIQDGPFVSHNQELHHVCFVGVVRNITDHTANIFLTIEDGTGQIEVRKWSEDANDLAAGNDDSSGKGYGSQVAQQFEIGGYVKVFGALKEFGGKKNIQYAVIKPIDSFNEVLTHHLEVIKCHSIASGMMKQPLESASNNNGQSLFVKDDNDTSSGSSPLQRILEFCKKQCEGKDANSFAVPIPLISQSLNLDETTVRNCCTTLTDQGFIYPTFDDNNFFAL
Sequence of yeast RPA (yRPA, ScRPA) (P26755 whole entry, chain 3 of 3): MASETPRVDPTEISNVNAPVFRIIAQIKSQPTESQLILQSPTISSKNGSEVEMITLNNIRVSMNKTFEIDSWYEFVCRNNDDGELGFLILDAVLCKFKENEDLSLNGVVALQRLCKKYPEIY

B1: (dT)22 DEER (ssDNA)
DNA: UTTTTTTTTTTTTTTTTTTTTTTUT
modifications: M = 2'-aminouridine spin-labelled with isoindoline nitroxide, at the two U positions (1 and 24)
Consider B1, for which the binding result is “binds”.
